Measured values as given in US20220098305A1 (Hoffmann-La Roche, published 2022).
Where a chain is given by its changes, count along the chain named. Read-outs that look alike come from different tables or passages of the source.

B1: Molecule 19, bispecific 2+1 anti-ICOS (1138)/anti-FAP (4B9) huIgG1 P329GLALA kih (bispecific antibody)
heavy 1: QSLEESGGDLVKPGASLTLTCTASGFDLSSYYYMSWVRQAPGKGLEWIASIYADIYGGTTHYASWAKGRFTISKTSSTTVTLQMTSLTAADTATYFCAREDGSRYGGSGYYNLWGPGTLVTVSSASTKGPSVFPLAPSSKSTSGGTAALGCLVKDYFPEPVTVSWNSGALTSGVHTFPAVLQSSGLYSLSSVVTVPSSSLGTQTYICNVNHKPSNTKVDKKVEPKSCDKTHTCPPCPAPEAAGGPSVFLFPPKPKDTLMISRTPEVTCVVVDVSHEDPEVKFNWYVDGVEVHNAKTKPREEQYNSTYRVVSVLTVLHQDWLNGKEYKCKVSNKALGAPIEKTISKAKGQPREPQVCTLPPSRDELTKNQVSLSCAVKGFYPSDIAVEWESNGQPENNYKTTPPVLDSDGSFFLVSKLTVDKSRWQQGNVFSCSVMHEALHNHYTQKSLSLSPGGGGGSGGGGSGGGGSGGGGSEIVLTQSPGTLSLSPGERATLSCRASQSVTSSYLAWYQQKPGQAPRLLINVGSRRATGIPDRFSGSGSGTDFTLTISRLEPEDFAVYYCQQGIMLPPTFGQGTKVEIK
heavy 2: not shown
light: ALVMTQTPSSVSAAVGGTVTINCQASQNIYSNLAWYQQKPGQPPKLLIYAASYLTSGVSSRFKGSGAGTQFTLTISGVESADAATYYCQQGHTTDNIDNAFGGGTEVVVKRTVAAPSVFIFPPSDEQLKSGTASVVCLLNNFYPREAKVQWKVDNALQSGNSQESVTEQDSKDSTYSLSSTLTLSKADYEKHKVYACEVTHQGLSSPVTKSFNRGEC
B2: Molecule 22, bispecific 2+1 anti-ICOS (1143v2)/anti-FAP (4B9) huIgG1 P329GLALA kih (bispecific antibody)
heavy 1: QSLEESGGDLVKPGASLTLTCKASGFDFSSAYDMSWVRQAPGKGLEWIGVIYYGDGITYYATSVKGRFTISKTSSTTVPLQMTSLTAADTATYFCARGAFLGSSYYLSLWGQGTLVTVSSASTKGPSVFPLAPSSKSTSGGTAALGCLVKDYFPEPVTVSWNSGALTSGVHTFPAVLQSSGLYSLSSVVTVPSSSLGTQTYICNVNHKPSNTKVDKKVEPKSCDKTHTCPPCPAPEAAGGPSVFLFPPKPKDTLMISRTPEVTCVVVDVSHEDPEVKFNWYVDGVEVHNAKTKPREEQYNSTYRVVSVLTVLHQDWLNGKEYKCKVSNKALGAPIEKTISKAKGQPREPQVCTLPPSRDELTKNQVSLSCAVKGFYPSDIAVEWESNGQPENNYKTTPPVLDSDGSFFLVSKLTVDKSRWQQGNVFSCSVMHEALHNHYTQKSLSLSPGGGGGSGGGGSGGGGSGGGGSEIVLTQSPGTLSLSPGERATLSCRASQSVTSSYLAWYQQKPGQAPRLLINVGSRRATGIPDRFSGSGSGTDFTLTISRLEPEDFAVYYCQQGIMLPPTFGQGTKVEIK
heavy 2: not shown
light: AIDMTQTPASVEAAVGGTVTINCQASENIYNWLAWYQQKPGQPPKLLIYDASKLASGVPSRFSASGSGTQFTLTISAVESADAATYYCQQAYTYGNIDNAFGGGTEVVVSRTVAAPSVFIFPPSDEQLKSGTASVVCLLNNFYPREAKVQWKVDNALQSGNSQESVTEQDSKDSTYSLSSTLTLSKADYEKHKVYACEVTHQGLSSPVTKSFNRGEC
B3: Molecule 8 (rbIgG of 1167) (antibody, V domains shown)
VH: EVRLLESGGGLVQPGGSLRLSCAASGFTFNTYAVHWVRQAPGKGLEWVSGIGGSGVRTYYADSVKGRLTISRDNSKNTLYLQMNSLRAEDTAIYFCAKDIYVADFTGYAFDIWGQGTMVTVSS
VL: DIQMTQSPSSVSASVGDRVTITCRASQGINNFLAWYQQKPGKAPKLLIYDASSLQSGVPSRFAGSGSGTDFTLTISSLQPEDFATYYCQQYNFYPLTFGGGTMVEIKR
notes: Rabbit IgG format, from transgenic rabbit; also called ICOS (1167); clone 1167
B4: Molecule 20 (rbIgG of 1143) (antibody, V domains shown)
VH: QSLEESGGDLVKPGASLTLTCKASGFDFSSAYDMCWVRQAPGKGLEWIGCVYYGDGITYYATWAKGRFTISKTSSTTVPLQMTSLTAADTATYFCARGAFLGSSYYLSLWGQGTLVTVSS
VL: AIDMTQTPASVEAAVGGTVTINCQASENIYNWLAWYQQKPGQPPKLLIYDASKLASGVPSRFSASGSGTQFTLTISAVECADAATYYCQQAYTYGNIDNAFGGGTEVVVSG
notes: Rabbit IgG format; also called ICOS (1143); clone 1143

Key:
[1] = target: T1, human FAP (human, UniProt Q12884 1-760); experiment: flow cytometry, NIH/3T3-huFAP clone 19 cells
T1 construct: also called hu FAP
Procedure: (§1) Briefly, suspension cells were harvested, counted, checked for viability and re-suspended at 1 million cells per ml in FACS buffer (PBS with 0.1% BSA). […] The staining was fixed for 20 min at 4° C. in the dark, using 75 μl of 1% PFA in FACS buffer per well.
(§2) Fluorescence was analyzed by FACS using a FACS Fortessa (Software FACS Diva). Binding curves and EC₅₀ values were obtained using GraphPadPrism 7.

[2] = target: T2, cynomolgus ICOS (cynomolgus, UniProt Q9Y6W8 21-195 (human entry)); experiment: flow cytometry, activated cynomolgus PBMCs, CD8+ subset
T2 chain: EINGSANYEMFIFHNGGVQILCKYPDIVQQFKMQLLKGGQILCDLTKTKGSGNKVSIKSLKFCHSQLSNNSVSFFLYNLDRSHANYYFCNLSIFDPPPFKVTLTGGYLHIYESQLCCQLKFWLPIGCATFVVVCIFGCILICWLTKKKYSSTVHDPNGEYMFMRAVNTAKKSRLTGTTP
Procedure: as §1
(§3) Briefly, cynomolgus PBMCs were activated for 48 hours using Dynabeads™ Human T-Activator CD3/CD28 (Thermo Fischer #11131D) according to manufacturer instruction and stored in RPMI1640 medium containing 10% FCS and 1% Glutamax (Gibco 35050061) at 37° C., in a humidified incubator until subsequent binding experiment was performed, as described above.

[3] = target: T2, cynomolgus ICOS; experiment: flow cytometry, activated cynomolgus PBMCs, CD4+ subset
Procedure: as §1, §3

[4] = target: T3, human ICOS (human, UniProt Q9Y6W8 21-199); experiment: flow cytometry, CHO cells expressing human ICOS
T3 construct: The cell that carries it is named under assay; also called huICOS; CD278
T3 sequence: T2 chain with K54T, R81H, T129A, F136L, T152S, G176D, T177V, P179L
Procedure: as §1, §2

[5] = target: T3, human ICOS; experiment: flow cytometry on SR cells expressing human ICOS, geometric MFI
[6] = target: T1, human FAP; experiment: flow cytometry, NIH/3T3-huFAP clone 19 cells; remark: listed apart in the source
[7] = target: T3, human ICOS; experiment: flow cytometry, SR cells
[8] = target: T3, human ICOS; experiment: flow cytometry on SR cells expressing human ICOS, PE-labelled secondary antibody, MFI
Procedure: as §1
(§4) In addition, binding of the above molecules to human SR cells (ATCC® CRL-2262) was performed as described above apart from the following modifications: SR cells were re-suspended at 2 million cells per ml in FACS buffer (BD).
(§5) Fluorescence was analyzed by FACS using a FACS Fortessa (Software FACS Diva). Binding curves and EC50 values were obtained using GraphPadPrism 7.

[9] = target: T4, recombinant monomeric human ICOS Fc(kih) Avi tag (human, UniProt P0DOX5 223-449 = IgG part, biotin on the Avi tag in the ligand-blocking and the SPR competition assays); experiment: SPR competition on human ICOS Fc(kih); second injection 100 nM; competitor (row): Molecule 14
T4 construct: also called recombinant human ICOS; biotinylated human ICOS Fc(kih)
Procedure: (§6) Immobilization levels up to 600 resonance units (RU) were used. […] Bulk refractive index differences were corrected for by subtracting the response obtained on reference flow cell.
(§7) The SPR experiments were performed on a Biacore T200 at 25° C. with HBS-EP as running buffer (0.01 M HEPES pH 7.4, 0.15 M NaCl, 3 mM EDTA, 0.005% Surfactant P20, Biacore, Freiburg/Germany).

[10] = target: T3, human ICOS; experiment: flow cytometry, SR cells; remark: listed apart in the source
Procedure: as §1, §4, §5

[11] = target: T4, recombinant monomeric human ICOS …; experiment: SPR (Biacore T200, 25 C), antibody captured on anti-rabbit Fc, ICOS Fc(kih) 7.5-600 nM as analyte, 1:1 Langmuir fit
Procedure: All SPR experiments were performed on a Biacore T200 at 25° C. with HBS-EP as running buffer (0.01 M HEPES pH 7.4, 0.15 M NaCl, 3 mM EDTA, 0.005% Surfactant P20, Biacore, Freiburg/Germany).
Setup 1: Anti-rabbit Fc antibody (Jackson ImmunoResearch, Cambridgeshire/UK) was directly coupled on a CM5 chip at pH 4.5 using the standard amine coupling kit (Biacore, Freiburg/Germany). The immobilization level was approximately 9000 RU. […] The dissociation was monitored for 720 seconds. Bulk refractive index differences were corrected for by subtracting the response obtained on reference flow cell.

[12] = target: T3, human ICOS; experiment: flow cytometry, ICOS+ CHO cells, 120 nM anti-ICOS IgG pre-bound, then ICOSL (competitor) 120 nM
Procedure: (§8) Briefly, cells were harvested, counted, checked for viability and re-suspended at 1 million cells per ml in FACS buffer (PBS with 0.1% BSA). […] Cells were washed again twice with cold PBS 0.1% BSA and then re-incubated and fixed for 20 min at 4° C. in the dark, using 75 μl of 1% PFA in FACS buffer per well. Fluorescence was analyzed by FACS using a FACS Fortessa (Software FACS Diva. Data was analyzed using GraphPadPrism 7.

[13] = target: T3, human ICOS; experiment: cell-based or functional assay
[14] = target: T4, recombinant monomeric human ICOS …; experiment: SPR competition on human ICOS Fc(kih); second injection 100 nM; competitor (row): Molecule 20
Procedure: as §6, §7

[15] = target: T3, human ICOS; experiment: flow cytometry, MFI(ICOSL+anti-ICOS)/MFI(anti-ICOS only)*100 at 120 nM; competitor ICOSL
Procedure: as §8

[16] = target: T3, human ICOS; experiment: flow cytometry, ICOS+ CHO cells, 120 nM anti-ICOS IgG, no ICOSL
Procedure: as §8

[17] = target: T3, human ICOS; experiment: flow cytometry on CHO cells stably expressing human ICOS, PE-labelled secondary antibody, median fluorescence intensity (MFI)
Procedure: as §1, §5

[18] = target: T3, human ICOS; experiment: flow cytometry, CHO cells expressing human ICOS; remark: listed apart in the source
Procedure: as §1, §5

[19] = target: T4, recombinant monomeric human ICOS …; experiment: SPR competition on human ICOS Fc(kih); second injection 100 nM; competitor (row): Molecule 18
Procedure: as §6, §7

[20] = target: T4, recombinant monomeric human ICOS …; experiment: SPR competition on human ICOS Fc(kih); second injection 100 nM; competitor (row): Molecule 8
Procedure: as §6, §7

Binder	EC50 [1]	EC50 [2]	EC50 [3]	EC50 [4]	EC50 (read off the curve) [8]	binding of the second injection (0 = no binding; 1 = binding) [9]	EC50 [10]	Kd [11]	koff [11]	kon [11]	t1/2 [11]	MFI (A488), IgG + ICOSL [12]	EC50 of activation of Jurkat-NFAT reporter cell line (luminescence) [13]	Relative Binding (%) [15]	MFI (A488), IgG only [16]	EC50 (read off the curve) [17]	EC50 [18]	binding of the second injection (0 = no binding; 1 = binding) [19]	also measured
B1	6.16 nM	14 nM	13.5 nM	5.44 nM															
B2	4.68 nM	8.34 nM	6.53 nM	2.19 nM															EC50 (read off the curve) [5]: ~1 nM; EC50 [6]: 0.00324 nM; EC50 [7]: 0.00117 nM
B3					~1 nM	0	0.00113 nM	76 nM	0.0061 s⁻¹	81000 M⁻¹ s⁻¹	0.0317 h	7660 MFI	0.13 nM	98.2%	7800 MFI	~0.7 nM	0.00069 nM	1	binding of the second injection (0 = no binding; 1 = binding) [14]: 0
B4					~0.4 nM	0	0.0004 nM	0.1 nM	2.3e-05 s⁻¹	170000 M⁻¹ s⁻¹	8.3 h	6340 MFI	0.02 nM	100%	6320 MFI	~0.3 nM	0.0003 nM	1	binding of the second injection (0 = no binding; 1 = binding) [20]: 0
